Measurements from PMC5078793.

Target: LTBP-1 C-terminal region (UniProt Q14766)
Test: SPR; Biacore; LTBP-1 C-terminal region immobilised by amine coupling on CM5 (methods); 10 mM HEPES pH 7.4, 0.1 M NaCl, 0.5 mM CaCl2, 0.005% P20

LTBP-1 C-terminal region, sequence (Q14766 24-1721): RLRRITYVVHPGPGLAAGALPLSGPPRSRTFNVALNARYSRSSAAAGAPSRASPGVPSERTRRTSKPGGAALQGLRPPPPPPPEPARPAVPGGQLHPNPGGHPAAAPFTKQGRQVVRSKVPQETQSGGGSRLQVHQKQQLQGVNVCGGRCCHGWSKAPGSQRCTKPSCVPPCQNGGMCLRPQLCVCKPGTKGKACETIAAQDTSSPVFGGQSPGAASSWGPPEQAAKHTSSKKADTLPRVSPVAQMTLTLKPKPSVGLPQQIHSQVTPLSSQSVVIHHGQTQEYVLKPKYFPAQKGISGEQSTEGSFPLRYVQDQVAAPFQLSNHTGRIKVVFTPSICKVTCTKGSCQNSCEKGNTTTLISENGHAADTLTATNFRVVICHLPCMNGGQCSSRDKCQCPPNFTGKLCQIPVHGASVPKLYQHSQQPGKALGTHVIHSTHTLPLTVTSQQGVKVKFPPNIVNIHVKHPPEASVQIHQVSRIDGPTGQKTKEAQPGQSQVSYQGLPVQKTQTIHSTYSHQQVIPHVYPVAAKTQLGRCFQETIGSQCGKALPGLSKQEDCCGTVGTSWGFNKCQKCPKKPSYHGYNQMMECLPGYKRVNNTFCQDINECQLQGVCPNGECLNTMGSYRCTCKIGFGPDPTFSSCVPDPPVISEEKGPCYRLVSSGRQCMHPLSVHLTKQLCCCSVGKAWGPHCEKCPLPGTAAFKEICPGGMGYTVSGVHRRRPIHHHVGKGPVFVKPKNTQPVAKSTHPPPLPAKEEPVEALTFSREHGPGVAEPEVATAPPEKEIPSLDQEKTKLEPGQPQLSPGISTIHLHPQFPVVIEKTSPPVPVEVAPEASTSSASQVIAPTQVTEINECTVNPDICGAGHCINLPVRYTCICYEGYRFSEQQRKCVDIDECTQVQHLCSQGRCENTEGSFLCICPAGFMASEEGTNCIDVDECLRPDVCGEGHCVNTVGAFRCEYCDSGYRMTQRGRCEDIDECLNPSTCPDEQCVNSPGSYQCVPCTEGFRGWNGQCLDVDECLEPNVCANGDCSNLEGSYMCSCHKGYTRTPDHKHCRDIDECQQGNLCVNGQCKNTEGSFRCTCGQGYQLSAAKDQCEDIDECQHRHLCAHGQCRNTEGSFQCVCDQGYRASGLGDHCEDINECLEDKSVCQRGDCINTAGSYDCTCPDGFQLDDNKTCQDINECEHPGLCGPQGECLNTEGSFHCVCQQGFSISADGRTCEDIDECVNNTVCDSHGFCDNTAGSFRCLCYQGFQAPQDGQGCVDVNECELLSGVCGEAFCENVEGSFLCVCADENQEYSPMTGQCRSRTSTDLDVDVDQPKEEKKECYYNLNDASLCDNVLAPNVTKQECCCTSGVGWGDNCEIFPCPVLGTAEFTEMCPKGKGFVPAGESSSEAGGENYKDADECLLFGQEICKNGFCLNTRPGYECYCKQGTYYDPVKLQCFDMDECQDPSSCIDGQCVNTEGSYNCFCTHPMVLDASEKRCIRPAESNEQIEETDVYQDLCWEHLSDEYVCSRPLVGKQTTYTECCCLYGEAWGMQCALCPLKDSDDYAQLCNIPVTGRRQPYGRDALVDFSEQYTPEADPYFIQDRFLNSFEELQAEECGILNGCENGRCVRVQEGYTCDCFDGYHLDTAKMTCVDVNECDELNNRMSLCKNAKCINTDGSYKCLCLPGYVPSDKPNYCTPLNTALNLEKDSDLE

B1: ADAMTS6 C-terminal region (domain or fragment)
chain: DGGWGPWSLWGECSRTCGGGVSSSLRHCDSPAPSGGGKYCLGERKRYRSCNTDPCPLGSRDFREKQCADFDNMPFRGKYYNWKPYTGGGVKPCALNCLAEGYNFYTERAPAVIDGTQCNADSLDICINGECKHVGCDNILGSDAREDRCRVCGGDGSTCDAIEGFFNDSLPRGGYMEVVQIPRGSVHIEVREVAMSKNYIALKSEGDDYYINGAWTIDWPRKFDVAGTAFHYKRPTDEPESLEALGPTSENLIVMVLLQEQNLGIRYKFNVPITRTGSGDNEVGFTWNHQPWSECSATCAGGVQRQEVVCKRLDDNSIVQNNYCDPDSKPPENQRACNTEPCPPEWFIGDWLECSKTCDGGMRTRAVLCIRKIGPSEEETLDYSGCLTHRPVEKEPCNNQSCPPQWVALDWSECTPKCGPGFKHRIVLCKSSDLSKTFPAAQCPEESKPPVRIRCSLGRCPPPRWVTGDWGQCSAQCGLGQQMRTVQCLSYTGQASSDCLETVRPPSMQQCESKCDSTPISNTEECKDVNKVAYCPLVLKFKFCSRAYFRQMCCKTCQGH
B1 was tested, and the Kd was 59 nM.
